CN102559636A

Target: CD6分子 (CD6 on the cell surface) (human) (UniProt P30203)
Assay: cell-based or functional assay

Substance: 人源化抗CD6单克隆抗体T1h (Itolizumab) (antibody)
- HUT-78生长抑制率 (CCK-8, 72 h, 100 ng/mL Hum-zap) at T1h 0.8 μM: 11.4%
- 细胞生长抑制率 of HUT-78 (CCK-8, 72 h, 100 ng/mL Hum-zap) at T1h 8×10-2, 8×10-3 and 8×10-4 μM: > 65%
- 细胞生长抑制率 of HUT-78 (CCK-8, 72 h, 100 ng/mL Hum-zap) at T1h 8×10-5, 8×10-6, 8×10-7 and 8×10-8 μM: < 10%
